Laboratory results from the supplement of paper PMC10567573.

B1: ATL3 (parent)
chain: HFKKTKKMGGKDFSFRYQQELEEE
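Note: lentivirally expressed fusions sorted by FACS into six bins by GFP to DsRed ratio, PSI derived from sequencing read proportions per bin multiplied by bin number.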

Variants of: B1
Experiment: protein stability index of a GFP-peptide fusion (GPS, HEK-293T) (PSI 1-6); higher = more stable
Conditions: c terminus: a fixed tail appended
Work on HFKKTKLMGGKDFSFRYQQELEEE [K7L] yielded a protein stability index of 2.1. HFKKTKAMGGKDFSFRYQQELEEE [K7A] showed a protein stability index of 2.02. HFKKTKVMGGKDFSFRYQQELEEE [K7V] showed a protein stability index of 1.84. In the case of HFKKTKNMGGKDFSFRYQQELEEE [K7N], the protein stability index is reported as 2.11. In the case of HFKKTKTMGGKDFSFRYQQELEEE [K7T], the protein stability index is reported as 1.9. For HFKKTKQMGGKDFSFRYQQELEEE [K7Q], the protein stability index was 2.54. HFKKTKSMGGKDFSFRYQQELEEE [K7S] showed a protein stability index of 2.04. Work on HFKKTKHMGGKDFSFRYQQELEEE [K7H] yielded a protein stability index of 2.32. With HFKKTKIMGGKDFSFRYQQELEEE [K7I] the protein stability index was 2.9. With HFKKTKMMGGKDFSFRYQQELEEE [K7M] the protein stability index was 2.88. With HFKKTKCMGGKDFSFRYQQELEEE [K7C] the protein stability index was 2.44. Variant HFKKTKPMGGKDFSFRYQQELEEE [K7P] has a protein stability index of 2.56. HFKKTKRMGGKDFSFRYQQELEEE [K7R] showed a protein stability index of 1.65. Variant HFKKTKGMGGKDFSFRYQQELEEE [K7G] has a protein stability index of 1.8. With HFHKTKKMGGKDFSFRYQQELEEE [K3H] the protein stability index was 1.73. Variant HFLKTKKMGGKDFSFRYQQELEEE [K3L] has a protein stability index of 1.98. Work on HFYKTKKMGGKDFSFRYQQELEEE [K3Y] yielded a protein stability index of 2.75. With HFTKTKKMGGKDFSFRYQQELEEE [K3T] the protein stability index was 1.04. Work on HFAKTKKMGGKDFSFRYQQELEEE [K3A] yielded a protein stability index of 2.06. HFPKTKKMGGKDFSFRYQQELEEE [K3P] gave a protein stability index of 1.9. HFSKTKKMGGKDFSFRYQQELEEE [K3S] showed a protein stability index of 1.79. Work on HFDKTKKMGGKDFSFRYQQELEEE [K3D] yielded a protein stability index of 2.34. For HFMKTKKMGGKDFSFRYQQELEEE [K3M], the protein stability index was 2.71. Work on HFWKTKKMGGKDFSFRYQQELEEE [K3W] yielded a protein stability index of 1.02. HFFKTKKMGGKDFSFRYQQELEEE [K3F] gave a protein stability index of 2.41. HFQKTKKMGGKDFSFRYQQELEEE [K3Q] gave a protein stability index of 3.21. HFIKTKKMGGKDFSFRYQQELEEE [K3I] showed a protein stability index of 1.89. With HFEKTKKMGGKDFSFRYQQELEEE [K3E] the protein stability index was 1.43. Work on HFNKTKKMGGKDFSFRYQQELEEE [K3N] yielded a protein stability index of 2.18. With HFGKTKKMGGKDFSFRYQQELEEE [K3G] the protein stability index was 1.86. HFVKTKKMGGKDFSFRYQQELEEE [K3V] showed a protein stability index of 2.4. Work on HFRKTKKMGGKDFSFRYQQELEEE [K3R] yielded a protein stability index of 2.42. With HFKKTKKCGGKDFSFRYQQELEEE [M8C] the protein stability index was 2.24. Variant HFKKTKKGGGKDFSFRYQQELEEE [M8G] has a protein stability index of 3.01. Work on HFKKTKKHGGKDFSFRYQQELEEE [M8H] yielded a protein stability index of 2.29. HFKKTKKIGGKDFSFRYQQELEEE [M8I] showed a protein stability index of 1.96. HFKKTKKDGGKDFSFRYQQELEEE [M8D] gave a protein stability index of 2.14. Variant HFKKTKKFGGKDFSFRYQQELEEE [M8F] has a protein stability index of 1.68. Variant HFKKTKKKGGKDFSFRYQQELEEE [M8K] has a protein stability index of 3.19. For HFKKTKKEGGKDFSFRYQQELEEE [M8E], the protein stability index was 2.72. For HFKKTKKAGGKDFSFRYQQELEEE [M8A], the protein stability index was 2.39. With HAKKTKKMGGKDFSFRYQQELEEE [F2A] the protein stability index was 1.48. HLKKTKKMGGKDFSFRYQQELEEE [F2L] gave a protein stability index of 1.39. In the case of HRKKTKKMGGKDFSFRYQQELEEE [F2R], the protein stability index is reported as 2.64. For HSKKTKKMGGKDFSFRYQQELEEE [F2S], the protein stability index was 1.91. Variant HGKKTKKMGGKDFSFRYQQELEEE [F2G] has a protein stability index of 1.4. HCKKTKKMGGKDFSFRYQQELEEE [F2C] gave a protein stability index of 1.8. In the case of HNKKTKKMGGKDFSFRYQQELEEE [F2N], the protein stability index is reported as 2.28. For HEKKTKKMGGKDFSFRYQQELEEE [F2E], the protein stability index was 1.09. Variant HVKKTKKMGGKDFSFRYQQELEEE [F2V] has a protein stability index of 2.62. HMKKTKKMGGKDFSFRYQQELEEE [F2M] showed a protein stability index of 2.76. Work on HYKKTKKMGGKDFSFRYQQELEEE [F2Y] yielded a protein stability index of 2.1. Variant HHKKTKKMGGKDFSFRYQQELEEE [F2H] has a protein stability index of 1.62. Variant HDKKTKKMGGKDFSFRYQQELEEE [F2D] has a protein stability index of 2.65. In the case of HPKKTKKMGGKDFSFRYQQELEEE [F2P], the protein stability index is reported as 1.26. In the case of HQKKTKKMGGKDFSFRYQQELEEE [F2Q], the protein stability index is reported as 3.05. HIKKTKKMGGKDFSFRYQQELEEE [F2I] gave a protein stability index of 2.65. With HTKKTKKMGGKDFSFRYQQELEEE [F2T] the protein stability index was 1.87. In the case of HFKKTNKMGGKDFSFRYQQELEEE [K6N], the protein stability index is reported as 2.15. HFKKTPKMGGKDFSFRYQQELEEE [K6P] showed a protein stability index of 1.2. With HFKKTRKMGGKDFSFRYQQELEEE [K6R] the protein stability index was 1.99. HFKKTTKMGGKDFSFRYQQELEEE [K6T] gave a protein stability index of 1.96. Work on HFKKTIKMGGKDFSFRYQQELEEE [K6I] yielded a protein stability index of 1.37. HFKKTAKMGGKDFSFRYQQELEEE [K6A] showed a protein stability index of 2.4. With HFKKTHKMGGKDFSFRYQQELEEE [K6H] the protein stability index was 1.52. In the case of HFKKTFKMGGKDFSFRYQQELEEE [K6F], the protein stability index is reported as 3.58. HFKKTVKMGGKDFSFRYQQELEEE [K6V] gave a protein stability index of 2.46. In the case of HFKKTMKMGGKDFSFRYQQELEEE [K6M], the protein stability index is reported as 2.51. HFKKTWKMGGKDFSFRYQQELEEE [K6W] showed a protein stability index of 1.51. With HFKKTSKMGGKDFSFRYQQELEEE [K6S] the protein stability index was 1.81. With HFKKTCKMGGKDFSFRYQQELEEE [K6C] the protein stability index was 2.15. Variant HFKKTEKMGGKDFSFRYQQELEEE [K6E] has a protein stability index of 2.1. In the case of HFKKTQKMGGKDFSFRYQQELEEE [K6Q], the protein stability index is reported as 2.39. In the case of HFKKTYKMGGKDFSFRYQQELEEE [K6Y], the protein stability index is reported as 2.38. Work on TFKKTKKMGGKDFSFRYQQELEEE [H1T] yielded a protein stability index of 3.89. With FFKKTKKMGGKDFSFRYQQELEEE [H1F] the protein stability index was 1.88. AFKKTKKMGGKDFSFRYQQELEEE [H1A] gave a protein stability index of 2.35. For WFKKTKKMGGKDFSFRYQQELEEE [H1W], the protein stability index was 2.22. Work on VFKKTKKMGGKDFSFRYQQELEEE [H1V] yielded a protein stability index of 2.26. Variant MFKKTKKMGGKDFSFRYQQELEEE [H1M] has a protein stability index of 2.32. For PFKKTKKMGGKDFSFRYQQELEEE [H1P], the protein stability index was 3.17. With LFKKTKKMGGKDFSFRYQQELEEE [H1L] the protein stability index was 1.65. With SFKKTKKMGGKDFSFRYQQELEEE [H1S] the protein stability index was 1.73. NFKKTKKMGGKDFSFRYQQELEEE [H1N] gave a protein stability index of 2.03. Work on KFKKTKKMGGKDFSFRYQQELEEE [H1K] yielded a protein stability index of 3.03. For IFKKTKKMGGKDFSFRYQQELEEE [H1I], the protein stability index was 1.36. Variant HFKKPKKMGGKDFSFRYQQELEEE [T5P] has a protein stability index of 1.78. HFKKFKKMGGKDFSFRYQQELEEE [T5F] gave a protein stability index of 2.44. Variant HFKKMKKMGGKDFSFRYQQELEEE [T5M] has a protein stability index of 2.57. In the case of HFKKSKKMGGKDFSFRYQQELEEE [T5S], the protein stability index is reported as 2.26. In the case of HFKKVKKMGGKDFSFRYQQELEEE [T5V], the protein stability index is reported as 2.75. Variant HFKKYKKMGGKDFSFRYQQELEEE [T5Y] has a protein stability index of 1.75. In the case of HFKKIKKMGGKDFSFRYQQELEEE [T5I], the protein stability index is reported as 2.17. HFKKCKKMGGKDFSFRYQQELEEE [T5C] showed a protein stability index of 2.37.
